Among the data in US10428149 (dated 2019) are EC50 values, retold here.

Assay [1] addresses T1, HER3 (human, UniProt P21860). Kind of assay: ELISA.
Assay [2] addresses T1, HER3. Kind of assay: FACS, Colo205 cells. (In general: In flow cytometry, cells or beads pass a laser one at a time.)
The target in assay [3] is T2, TRAIL-R2 (DR5) (human, UniProt O14763). Kind of assay: ELISA. A general note: ELISA stands for enzyme-linked immunosorbent assay.
Assay [4] concerns the target T3, EGFR (human, UniProt P00533). As to the kind of experiment: FACS, Colo205 cells.
The target of assay [5] is T3, EGFR. Kind of assay: ELISA.
Assay [6] concerns the target T2, TRAIL-R2 (DR5). Kind of assay: FACS, Colo205 cells.

B1: scFv3M6-EHD2-scTRAIL3-… (HER3 arm) (antibody)
chain: EVQLLESGGGLVQPGGSLRLSCAASGFTFSHYVMAWVRQAPGKGLEWVSSISSSGGWTLYADSVKGRFTISRDNSKNTLYLQMNSLRAEDTAVYYCTRGLKMATIFDYWGQGTLVTVSSGGGGSGGGGSGGGGSQSALTQPASVSGSPGQSITISCTGTSSDVGSYNVVSWYQQHPGKAPKLIIYEVSQRPSGVSNRFSGSKSGNTASLTISGLQTEDEADYYCSSYAGSSIFVIFGGGTKVTVLAAAGGSGGDFTPPTVKILQSSCDGGGHFPPTIQLLCLVSGYTPGTINITWLEDGQVMDVDLSTASTTQEGELASTQSELTLSQKHWLSDRTYTCQVTYQGHTFEDSTKKCADSN
A word on the EC50: it is the concentration needed to bring the measured effect to its halfway point. In the case of B1, the results for the EC50 in the assay with HER3 [1] and in the assay with HER3 [2] were 11.6 nM and 19.9 nM, respectively.

B2: dsDb3M6-scTRAIL3-FLVGGGPQRVA (antibody)
chain: DYKDDDDKGGGGSGTEVQLLESGGGLVQPGGSLRLSCAASGFTFSHYVMAWVRQAPGKCLEWVSSISSSGGWTLYADSVKGRFTISRDNSKNTLYLQMNSLRAEDTAVYYCTRGLKMATIFDYWGQGTLVTVSSGGGGSQSALTQPASVSGSPGQSITISCTGTSSDVGSYNVVSWYQQHPGKAPKLIIYEVSQRPSGVSNRFSGSKSGNTASLTISGLQTEDEADYYCSSYAGSSIFVIFGCGTKVTVLAAAGGSGGGPQRVAAHITGTRGRSNTLSSPNSKNEKALGRKINSWESSRSGHSFLSNLHLRNGELVIHEKGFYYIYSQTYFRFQEEIKENTKNDKQMVQYIYKYTSYPDPILLMKSARNSCWSKDAEYGLYSIYQGGIFELKENDRIFVSVTNEHLIDMDHEASFFGAFLVGGGPQRVAAHITGTRGRSNTLSSPNSKNEKALGRKINSWESSRSGHSFLSNLHLRNGELVIHEKGFYYIYSQTYFRFQEEIKENTKNDKQMVQYIYKYTSYPDPILLMKSARNSCWSKDAEYGLYSIYQGGIFELKENDRIFVSVTNEHLIDMDHEASFFGAFLVGGGPQRVAAHITGTRGRSNTLSSPNSKNEKALGRKINSWESSRSGHSFLSNLHLRNGELVIHEKGFYYIYSQTYFRFQEEIKENTKNDKQMVQYIYKYTSYPDPILLMKSARNSCWSKDAEYGLYSIYQGGIFELKENDRIFVSVTNEHLIDMDHEASFFGAFLVG
Consider B2, for which the EC50 stood at 8.54 nM with HER3 [1], 32.5 nM in the assay with HER3 [2] and 2.83 nM with TRAIL-R2 (DR5) [3].

B3: scFv3M6-Fc-scTRAIL3-… (HER3 arm) (antibody, V domains shown)
VH: EVQLLESGGGLVQPGGSLRLSCAASGFTFSHYVMAWVRQAPGKGLEWVSSISSSGGWTLYADSVKGRFTISRDNSKNTLYLQMNSLRAEDTAVYYCTRGLKMATIFDYWGQGTLVTVSS
VL: QSALTQPASVSGSPGQSITISCTGTSSDVGSYNVVSWYQQHPGKAPKLIIYEVSQRPSGVSNRFSGSKSGNTASLTISGLQTEDEADYYCSSYAGSSIFVIFGGGTKVTVL
In turn, B3 had a concentration giving a half-maximal response (EC50) with HER3 [2] of 13.1 nM.

B4: Db3M6-scTRAIL3-… (HER3 arm) (antibody, V domains shown)
VH: EVQLLESGGGLVQPGGSLRLSCAASGFTFSHYVMAWVRQAPGKGLEWVSSISSSGGWTLYADSVKGRFTISRDNSKNTLYLQMNSLRAEDTAVYYCTRGLKMATIFDYWGQGTLVTVSS
VL: QSALTQPASVSGSPGQSITISCTGTSSDVGSYNVVSWYQQHPGKAPKLIIYEVSQRPSGVSNRFSGSKSGNTASLTISGLQTEDEADYYCSSYAGSSIFVIFGGGTKVTVL
As to B4, the EC50 stood at 5.88 nM in the assay with HER3 [1] and 10.4 nM with HER3 [2].

B5: Dbhu225-scTRAIL3-FLVGGGPQRVA (antibody)
chain: DYKDDDDKGGGGSGTEVQLVESGGGLVQPGGSLRLSCAASGFSLTNYGVHWVRQAPGKGLEWLGVIWSGGNTDYNTPFTSRFTISRDNSKNTLYLQMNSLRAEDTAVYYCARALTYYDYEFAYWGQGTTVTVSSGGGGSDIQLTQSPSFLSASVGDRVTITCRASQSIGTNIHWYQQKPGKAPKLLIKYASESISGVPSRFSGSGSGTEFTLTISSLQPEDFATYYCQQNNNWPTTFGAGTKLEIKRAAAGGSGGGPQRVAAHITGTRGRSNTLSSPNSKNEKALGRKINSWESSRSGHSFLSNLHLRNGELVIHEKGFYYIYSQTYFRFQEEIKENTKNDKQMVQYIYKYTSYPDPILLMKSARNSCWSKDAEYGLYSIYQGGIFELKENDRIFVSVTNEHLIDMDHEASFFGAFLVGGGPQRVAAHITGTRGRSNTLSSPNSKNEKALGRKINSWESSRSGHSFLSNLHLRNGELVIHEKGFYYIYSQTYFRFQEEIKENTKNDKQMVQYIYKYTSYPDPILLMKSARNSCWSKDAEYGLYSIYQGGIFELKENDRIFVSVTNEHLIDMDHEASFFGAFLVGGGPQRVAAHITGTRGRSNTLSSPNSKNEKALGRKINSWESSRSGHSFLSNLHLRNGELVIHEKGFYYIYSQTYFRFQEEIKENTKNDKQMVQYIYKYTSYPDPILLMKSARNSCWSKDAEYGLYSIYQGGIFELKENDRIFVSVTNEHLIDMDHEASFFGAFLVG
For B5, the EC50 was determined as 0.87 nM with EGFR [4], 0.77 nM in the assay with EGFR [5] and 0.79 nM with TRAIL-R2 (DR5) [3].

B6: dsDbhu225-scTRAIL3-FLVGGGPQRVA (antibody)
chain: DYKDDDDKGGGGSGTEVQLVESGGGLVQPGGSLRLSCAASGFSLTNYGVHWVRQAPGKCLEWLGVIWSGGNTDYNTPFTSRFTISRDNSKNTLYLQMNSLRAEDTAVYYCARALTYYDYEFAYWGQGTTVTVSSGGGGSDIQLTQSPSFLSASVGDRVTITCRASQSIGTNIHWYQQKPGKAPKLLIKYASESISGVPSRFSGSGSGTEFTLTISSLQPEDFATYYCQQNNNWPTTFGCGTKLEIKRAAAGGSGGGPQRVAAHITGTRGRSNTLSSPNSKNEKALGRKINSWESSRSGHSFLSNLHLRNGELVIHEKGFYYIYSQTYFRFQEEIKENTKNDKQMVQYIYKYTSYPDPILLMKSARNSCWSKDAEYGLYSIYQGGIFELKENDRIFVSVTNEHLIDMDHEASFFGAFLVGGGPQRVAAHITGTRGRSNTLSSPNSKNEKALGRKINSWESSRSGHSFLSNLHLRNGELVIHEKGFYYIYSQTYFRFQEEIKENTKNDKQMVQYIYKYTSYPDPILLMKSARNSCWSKDAEYGLYSIYQGGIFELKENDRIFVSVTNEHLIDMDHEASFFGAFLVGGGPQRVAAHITGTRGRSNTLSSPNSKNEKALGRKINSWESSRSGHSFLSNLHLRNGELVIHEKGFYYIYSQTYFRFQEEIKENTKNDKQMVQYIYKYTSYPDPILLMKSARNSCWSKDAEYGLYSIYQGGIFELKENDRIFVSVTNEHLIDMDHEASFFGAFLVG
With B6, the EC50 in the assay with EGFR [4] came out at 0.86 nM; in the assay with EGFR [5], 0.98 nM; with TRAIL-R2 (DR5) [3] it was 1.29 nM.

B7: scFvhu225-EHD2-scTRAIL3-FLVGGGPQRVA (antibody)
chain: DYKDDDDKGGGGSGTEVQLVESGGGLVQPGGSLRLSCAASGFSLTNYGVHWVRQAPGKGLEWLGVIWSGGNTDYNTPFTSRFTISRDNSKNTLYLQMNSLRAEDTAVYYCARALTYYDYEFAYWGQGTTVTVSSGGGGSGGGGSGGGGSDIQLTQSPSFLSASVGDRVTITCRASQSIGTNIHWYQQKPGKAPKLLIKYASESISGVPSRFSGSGSGTEFTLTISSLQPEDFATYYCQQNNNWPTTFGAGTKLEIKRAAAGGSGGDFTPPTVKILQSSCDGGGHFPPTIQLLCLVSGYTPGTINITWLEDGQVMDVDLSTASTTQEGELASTQSELTLSQKHWLSDRTYTCQVTYQGHTFEDSTKKCADSNGGSGGASSGGGPQRVAAHITGTRGRSNTLSSPNSKNEKALGRKINSWESSRSGHSFLSNLHLRNGELVIHEKGFYYIYSQTYFRFQEEIKENTKNDKQMVQYIYKYTSYPDPILLMKSARNSCWSKDAEYGLYSIYQGGIFELKENDRIFVSVTNEHLIDMDHEASFFGAFLVGGGPQRVAAHITGTRGRSNTLSSPNSKNEKALGRKINSWESSRSGHSFLSNLHLRNGELVIHEKGFYYIYSQTYFRFQEEIKENTKNDKQMVQYIYKYTSYPDPILLMKSARNSCWSKDAEYGLYSIYQGGIFELKENDRIFVSVTNEHLIDMDHEASFFGAFLVGGGPQRVAAHITGTRGRSNTLSSPNSKNEKALGRKINSWESSRSGHSFLSNLHLRNGELVIHEKGFYYIYSQTYFRFQEEIKENTKNDKQMVQYIYKYTSYPDPILLMKSARNSCWSKDAEYGLYSIYQGGIFELKENDRIFVSVTNEHLIDMDHEASFFGAFLVG
For the molecule B7, the 50% effective concentration (EC50) in the assay with EGFR [4] was found to be 0.58 nM; in the assay with EGFR [5] it was 1.25 nM; in the assay with TRAIL-R2 (DR5) [3], 1.82 nM.

B8: EHD2-scTRAIL3-FLVGGGPQRVA (designed binder)
chain 1: DFTPPTVKILQSSCDGGGHFPPTIQLLCLVSGYTPGTINITWLEDGQVMDVDLSTASTTQEGELASTQSELTLSQKHWLSDRTYTCQVTYQGHTFEDSTKKCADSN
chain 2: MDWTWRVFCLLAVAPGAHSLDDYKDDDDKEFGGGPQRVAAHITGTRGRSNTLSSPNSKNEKALGRKINSWESSRSGHSFLSNLHLRNGELVIHEKGFYYIYSQTYFRFQEEIKENTKNDKQMVQYIYKYTSYPDPILLMKSARNSCWSKDAEYGLYSIYQGGIFELKENDRIFVSVTNEHLIDMDHEASFFGAFLVGGGPQRVAAHITGTRGRSNTLSSPNSKNEKALGRKINSWESSRSGHSFLSNLHLRNGELVIHEKGFYYIYSQTYFRFQEEIKENTKNDKQMVQYIYKYTSYPDPILLMKSARNSCWSKDAEYGLYSIYQGGIFELKENDRIFVSVTNEHLIDMDHEASFFGAFLVGGGPQRVAAHITGTRGRSNTLSSPNSKNEKALGRKINSWESSRSGHSFLSNLHLRNGELVIHEKGFYYIYSQTYFRFQEEIKENTKNDKQMVQYIYKYTSYPDPILLMKSARNSCWSKDAEYGLYSIYQGGIFELKENDRIFVSVTNEHLIDMDHEASFFGAFLV
For the molecule B8, the EC50 in the assay with TRAIL-R2 (DR5) [6] is over 100 nM; in the assay with TRAIL-R2 (DR5) [3], 1.94 nM.

B9: scTRAIL3-FLVGGGPQRVA (designed binder)
chain: MDWTWRVFCLLAVAPGAHSLDDYKDDDDKEFGGGPQRVAAHITGTRGRSNTLSSPNSKNEKALGRKINSWESSRSGHSFLSNLHLRNGELVIHEKGFYYIYSQTYFRFQEEIKENTKNDKQMVQYIYKYTSYPDPILLMKSARNSCWSKDAEYGLYSIYQGGIFELKENDRIFVSVTNEHLIDMDHEASFFGAFLVGGGPQRVAAHITGTRGRSNTLSSPNSKNEKALGRKINSWESSRSGHSFLSNLHLRNGELVIHEKGFYYIYSQTYFRFQEEIKENTKNDKQMVQYIYKYTSYPDPILLMKSARNSCWSKDAEYGLYSIYQGGIFELKENDRIFVSVTNEHLIDMDHEASFFGAFLVGGGPQRVAAHITGTRGRSNTLSSPNSKNEKALGRKINSWESSRSGHSFLSNLHLRNGELVIHEKGFYYIYSQTYFRFQEEIKENTKNDKQMVQYIYKYTSYPDPILLMKSARNSCWSKDAEYGLYSIYQGGIFELKENDRIFVSVTNEHLIDMDHEASFFGAFLV
B9: the concentration for a half-maximal effect (EC50) was 5.67 nM in the assay with TRAIL-R2 (DR5) [6] and 1.74 nM with TRAIL-R2 (DR5) [3].
